Measurements reported in patent US20140087995A1 (published 2014).
Numbered stars: 1 amine (or outer) side, 2 acyl side, 3 side chain; on linkers, the order of the positions; unused ones are H or OH. Bridge positions count the residues as written; N and C are the ends. * marks the point of attachment. C20 diacid = O=C(O)CCCCCCCCCCCCCCCCCCC(=O)*; γGlu = O=C(O)[C@H](CCC(=O)[*:2])N[*:1]

T1: human amylin receptor (amylin 3(a) receptor: human calcitonin receptor plus RAMP-3) (human, UniProt P30988 25-474; O60896 24-148)
T1 sequence (looked up) 1: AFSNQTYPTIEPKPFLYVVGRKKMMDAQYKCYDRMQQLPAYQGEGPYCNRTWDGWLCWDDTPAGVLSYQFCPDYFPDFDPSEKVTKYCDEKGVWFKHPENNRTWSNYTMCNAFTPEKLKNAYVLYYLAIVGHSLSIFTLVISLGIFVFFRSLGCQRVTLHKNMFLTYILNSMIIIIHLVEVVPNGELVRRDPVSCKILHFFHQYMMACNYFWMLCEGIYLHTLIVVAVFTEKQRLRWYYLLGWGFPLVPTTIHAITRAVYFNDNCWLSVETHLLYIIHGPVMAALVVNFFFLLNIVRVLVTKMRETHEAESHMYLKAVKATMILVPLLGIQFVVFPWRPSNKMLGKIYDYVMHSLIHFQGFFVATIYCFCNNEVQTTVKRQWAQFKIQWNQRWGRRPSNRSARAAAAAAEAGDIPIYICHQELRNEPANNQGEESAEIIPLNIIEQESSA
T1 sequence (looked up) 2: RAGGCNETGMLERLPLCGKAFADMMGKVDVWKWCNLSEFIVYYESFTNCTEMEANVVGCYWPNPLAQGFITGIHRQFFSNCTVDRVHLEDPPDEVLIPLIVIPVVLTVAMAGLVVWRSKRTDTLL

T2: human calcitonin receptor (human, UniProt P30988 25-474)
T2 sequence (looked up): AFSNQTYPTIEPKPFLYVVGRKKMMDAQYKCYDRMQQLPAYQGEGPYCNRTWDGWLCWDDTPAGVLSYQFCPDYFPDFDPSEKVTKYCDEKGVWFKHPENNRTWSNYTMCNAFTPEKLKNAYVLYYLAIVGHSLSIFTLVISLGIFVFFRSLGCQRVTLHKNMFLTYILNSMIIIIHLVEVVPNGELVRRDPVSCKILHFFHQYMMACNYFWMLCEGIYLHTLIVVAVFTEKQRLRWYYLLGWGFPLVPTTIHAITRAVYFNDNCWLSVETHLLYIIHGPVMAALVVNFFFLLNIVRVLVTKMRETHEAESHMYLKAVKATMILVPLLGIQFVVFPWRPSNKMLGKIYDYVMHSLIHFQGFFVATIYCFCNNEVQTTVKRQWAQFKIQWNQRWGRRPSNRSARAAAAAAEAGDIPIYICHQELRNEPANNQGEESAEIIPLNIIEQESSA

B1: N^α1N^α1-[(4S)-4-carboxy-4-(19-carboxynonadecanoylamino)butanoyl]-[Glu14,Arg17,Pro21,Pro27,Glu35]-h-amylin (peptide)
peptide: {C20 diacid-γGlu}-KCNTATCATQRLAEFLRHSSPNFGAIPSSTNVGSETY-NH2
modifications: disulfide 2-7
SMILES: CC[C@H](C)[C@H](NC(=O)[C@H](C)NC(=O)CNC(=O)[C@H](Cc1ccccc1)NC(=O)[C@H](CC(N)=O)NC(=O)[C@@H]1CCCN1C(=O)[C@H](CO)NC(=O)[C@H](CO)NC(=O)[C@H](Cc1c[nH]cn1)NC(=O)[C@H](CCCNC(=N)N)NC(=O)[C@H](CC(C)C)NC(=O)[C@H](Cc1ccccc1)NC(=O)[C@H](CCC(=O)O)NC(=O)[C@H](C)NC(=O)[C@H](CC(C)C)NC(=O)[C@H](CCCNC(=N)N)NC(=O)[C@H](CCC(N)=O)NC(=O)[C@@H](NC(=O)[C@H](C)NC(=O)[C@@H]1CSSC[C@H](NC(=O)[C@H](CCCCN)NC(=O)CC[C@H](NC(=O)CCCCCCCCCCCCCCCCCCC(=O)O)C(=O)O)C(=O)N[C@@H](CC(N)=O)C(=O)N[C@@H]([C@@H](C)O)C(=O)N[C@@H](C)C(=O)N[C@@H]([C@@H](C)O)C(=O)N1)[C@@H](C)O)C(=O)N1CCC[C@H]1C(=O)N[C@@H](CO)C(=O)N[C@@H](CO)C(=O)N[C@H](C(=O)N[C@@H](CC(N)=O)C(=O)N[C@H](C(=O)NCC(=O)N[C@@H](CO)C(=O)N[C@@H](CCC(=O)O)C(=O)N[C@H](C(=O)N[C@@H](Cc1ccc(O)cc1)C(N)=O)[C@@H](C)O)C(C)C)[C@@H](C)O
notes: also called compound 22
B2: N^α1-[(4S)-4-carboxy-4-(19-carboxynonadecanoylamino)butanoyl]-[Glu14,Arg17,Pro21,Pro28,Glu35]-h-amylin (peptide)
peptide: {C20 diacid-γGlu}-KCNTATCATQRLAEFLRHSSPNFGAILPSTNVGSETY-NH2
modifications: disulfide 2-7
notes: also called compound 33
B3: N^α1-[(4S)-4-carboxy-4-(19-carboxynonadecanoylamino)butanoyl]-[His14,Arg17,Pro21,Pro27,Glu35]-h-amylin (peptide)
peptide: {C20 diacid-γGlu}-KCNTATCATQRLAHFLRHSSPNFGAIPSSTNVGSETY-NH2
modifications: disulfide 2-7
SMILES: CC[C@H](C)[C@H](NC(=O)[C@H](C)NC(=O)CNC(=O)[C@H](Cc1ccccc1)NC(=O)[C@H](CC(N)=O)NC(=O)[C@@H]1CCCN1C(=O)[C@H](CO)NC(=O)[C@H](CO)NC(=O)[C@H](Cc1c[nH]cn1)NC(=O)[C@H](CCCNC(=N)N)NC(=O)[C@H](CC(C)C)NC(=O)[C@H](Cc1ccccc1)NC(=O)[C@H](Cc1c[nH]cn1)NC(=O)[C@H](C)NC(=O)[C@H](CC(C)C)NC(=O)[C@H](CCCNC(=N)N)NC(=O)[C@H](CCC(N)=O)NC(=O)[C@@H](NC(=O)[C@H](C)NC(=O)[C@@H]1CSSC[C@H](NC(=O)[C@H](CCCCN)NC(=O)CC[C@H](NC(=O)CCCCCCCCCCCCCCCCCCC(=O)O)C(=O)O)C(=O)N[C@@H](CC(N)=O)C(=O)N[C@@H]([C@@H](C)O)C(=O)N[C@@H](C)C(=O)N[C@@H]([C@@H](C)O)C(=O)N1)[C@@H](C)O)C(=O)N1CCC[C@H]1C(=O)N[C@@H](CO)C(=O)N[C@@H](CO)C(=O)N[C@H](C(=O)N[C@@H](CC(N)=O)C(=O)N[C@H](C(=O)NCC(=O)N[C@@H](CO)C(=O)N[C@@H](CCC(=O)O)C(=O)N[C@H](C(=O)N[C@@H](Cc1ccc(O)cc1)C(N)=O)[C@@H](C)O)C(C)C)[C@@H](C)O
notes: also called compound 30
B4: N^α1-[(4S)-4-carboxy-4-(19-carboxynonadecanoylamino)butanoyl]-[Arg17,Pro21,Pro27,Pro34,Glu35]-h-amylin (peptide)
peptide: {C20 diacid-γGlu}-KCNTATCATQRLANFLRHSSPNFGAIPSSTNVGPETY-NH2
modifications: disulfide 2-7
SMILES: CC[C@H](C)[C@H](NC(=O)[C@H](C)NC(=O)CNC(=O)[C@H](Cc1ccccc1)NC(=O)[C@H](CC(N)=O)NC(=O)[C@@H]1CCCN1C(=O)[C@H](CO)NC(=O)[C@H](CO)NC(=O)[C@H](Cc1c[nH]cn1)NC(=O)[C@H](CCCNC(=N)N)NC(=O)[C@H](CC(C)C)NC(=O)[C@H](Cc1ccccc1)NC(=O)[C@H](CC(N)=O)NC(=O)[C@H](C)NC(=O)[C@H](CC(C)C)NC(=O)[C@H](CCCNC(=N)N)NC(=O)[C@H](CCC(N)=O)NC(=O)[C@@H](NC(=O)[C@H](C)NC(=O)[C@@H]1CSSC[C@H](NC(=O)[C@H](CCCCN)NC(=O)CC[C@H](NC(=O)CCCCCCCCCCCCCCCCCCC(=O)O)C(=O)O)C(=O)N[C@@H](CC(N)=O)C(=O)N[C@@H]([C@@H](C)O)C(=O)N[C@@H](C)C(=O)N[C@@H]([C@@H](C)O)C(=O)N1)[C@@H](C)O)C(=O)N1CCC[C@H]1C(=O)N[C@@H](CO)C(=O)N[C@@H](CO)C(=O)N[C@H](C(=O)N[C@@H](CC(N)=O)C(=O)N[C@H](C(=O)NCC(=O)N1CCC[C@H]1C(=O)N[C@@H](CCC(=O)O)C(=O)N[C@H](C(=O)N[C@@H](Cc1ccc(O)cc1)C(N)=O)[C@@H](C)O)C(C)C)[C@@H](C)O
notes: also called compound 29
B5: N^α1-[(4S)-4-carboxy-4-(19-carboxynonadecanoylamino)butanoyl]-[Arg17,Pro21,Pro27,Pro31,Glu35]-h-amylin (peptide)
peptide: {C20 diacid-γGlu}-KCNTATCATQRLANFLRHSSPNFGAIPSSTPVGSETY-NH2
modifications: disulfide 2-7
SMILES: CC[C@H](C)[C@H](NC(=O)[C@H](C)NC(=O)CNC(=O)[C@H](Cc1ccccc1)NC(=O)[C@H](CC(N)=O)NC(=O)[C@@H]1CCCN1C(=O)[C@H](CO)NC(=O)[C@H](CO)NC(=O)[C@H](Cc1c[nH]cn1)NC(=O)[C@H](CCCNC(=N)N)NC(=O)[C@H](CC(C)C)NC(=O)[C@H](Cc1ccccc1)NC(=O)[C@H](CC(N)=O)NC(=O)[C@H](C)NC(=O)[C@H](CC(C)C)NC(=O)[C@H](CCCNC(=N)N)NC(=O)[C@H](CCC(N)=O)NC(=O)[C@@H](NC(=O)[C@H](C)NC(=O)[C@@H]1CSSC[C@H](NC(=O)[C@H](CCCCN)NC(=O)CC[C@H](NC(=O)CCCCCCCCCCCCCCCCCCC(=O)O)C(=O)O)C(=O)N[C@@H](CC(N)=O)C(=O)N[C@@H]([C@@H](C)O)C(=O)N[C@@H](C)C(=O)N[C@@H]([C@@H](C)O)C(=O)N1)[C@@H](C)O)C(=O)N1CCC[C@H]1C(=O)N[C@@H](CO)C(=O)N[C@@H](CO)C(=O)N[C@H](C(=O)N1CCC[C@H]1C(=O)N[C@H](C(=O)NCC(=O)N[C@@H](CO)C(=O)N[C@@H](CCC(=O)O)C(=O)N[C@H](C(=O)N[C@@H](Cc1ccc(O)cc1)C(N)=O)[C@@H](C)O)C(C)C)[C@@H](C)O
notes: also called compound 28
B6: N^α1-[(4S)-4-carboxy-4-(19-carboxynonadecanoylamino)butanoyl]-[Glu14,Arg17,Pro21,Pro27,His35]-h-amylin (peptide)
peptide: {C20 diacid-γGlu}-KCNTATCATQRLAEFLRHSSPNFGAIPSSTNVGSHTY-NH2
modifications: disulfide 2-7
SMILES: CC[C@H](C)[C@H](NC(=O)[C@H](C)NC(=O)CNC(=O)[C@H](Cc1ccccc1)NC(=O)[C@H](CC(N)=O)NC(=O)[C@@H]1CCCN1C(=O)[C@H](CO)NC(=O)[C@H](CO)NC(=O)[C@H](Cc1c[nH]cn1)NC(=O)[C@H](CCCNC(=N)N)NC(=O)[C@H](CC(C)C)NC(=O)[C@H](Cc1ccccc1)NC(=O)[C@H](CCC(=O)O)NC(=O)[C@H](C)NC(=O)[C@H](CC(C)C)NC(=O)[C@H](CCCNC(=N)N)NC(=O)[C@H](CCC(N)=O)NC(=O)[C@@H](NC(=O)[C@H](C)NC(=O)[C@@H]1CSSC[C@H](NC(=O)[C@H](CCCCN)NC(=O)CC[C@H](NC(=O)CCCCCCCCCCCCCCCCCCC(=O)O)C(=O)O)C(=O)N[C@@H](CC(N)=O)C(=O)N[C@@H]([C@@H](C)O)C(=O)N[C@@H](C)C(=O)N[C@@H]([C@@H](C)O)C(=O)N1)[C@@H](C)O)C(=O)N1CCC[C@H]1C(=O)N[C@@H](CO)C(=O)N[C@@H](CO)C(=O)N[C@H](C(=O)N[C@@H](CC(N)=O)C(=O)N[C@H](C(=O)NCC(=O)N[C@@H](CO)C(=O)N[C@@H](Cc1c[nH]cn1)C(=O)N[C@H](C(=O)N[C@@H](Cc1ccc(O)cc1)C(N)=O)[C@@H](C)O)C(C)C)[C@@H](C)O
notes: also called compound 18
B7: N^α1-[(4S)-4-carboxy-4-(19-carboxynonadecanoylamino)butanoyl]-[Arg17,Pro21,Pro27,Glu35]-h-amylin (peptide)
peptide: KCNTATCATQRLANFLRHSSPNFGAIPSSTNVGSETY
modifications: C20 diacid-gGlu on the alpha amino group of the N-terminal residue (Lys1); disulfide Cys2-Cys7 and C-terminal amide as in human amylin
notes: also called compound 23

Key:
[1] = target: T1, human amylin receptor (amylin 3(a) …); test: cell-based or functional assay
[2] = target: T2, human calcitonin receptor; test: cell-based or functional assay
[3] = target: T1, human amylin receptor (amylin 3(a) …); test: SPA competition binding, displacement of 125I-rat amylin, membranes of BHK amylin 3(a)/CRE-luc cells
Protocol: The binding assay was performed using scintillation proximity assay (SPA) beads (RPNQ0001) from PerkinElmer and cell membranes from the Amylin 3(a)/CRE-luc cells (as described in Assay (II)) were used. Membranes were prepared in the following way; the cells were rinsed with PBS and incubated with Versene for approximately 5 min before harvesting. The cells were flushed with PBS and the cell-suspension was centrifuged for 5 min at 1000 rpm. Cells were homogenized (ultrathurrax) in a buffer containing 20 mM Na-HEPES and 10 mM EDTA (pH 7.4) and centrifuged at 20.000 rpm for 15 min. The resulting pellet was resuspended, homogenized and centrifuged (20.000 rpm, 15 min) in a buffer containing 20 mM Na-HEPES and 0.1 mM EDTA (pH 7.4, buffer 2). The resulting pellet was resuspended in buffer 2 and protein concentration was measured (BCA protein Assay, Pierce). The homogenate was kept cold during the whole procedure. The membranes were kept at −80° C. until use. The assay was performed in a 384 well Optiplate (PerkinElmer) in a total volume of 40 ul. Membranes were mixed with SPA beads. Final concentration of membranes 35 ng/μL final and SPA beads was 0.05 mg/well. Test-compounds were dissolved in DMSO and further diluted in assay buffer (50 mM Hepes, pH 7.4, 1 mM CaCl2, 5 mM MgCl₂, 0.1% OA and 0.02% Tween20). […] The final mixture was incubated with shaking at 400 rpm for 120 min at 25° C. prior to centrifugation (1500 rpm, 10 min). Samples were analyzed on TopCounter™ (Packard). The IC₅₀ was calculated using (one site binding competition analysis) GraphPad Prism5 as a measure of receptor affinity.

Binder | Ratio hCT/hAmylin funct. [1] | hAmylin-R funct. EC50 (pM) [1] [pM] | hCTR funct. EC50 (pM) [2] [pM] | IC50 [3] [nM]
B1 | 3.8 | 270 | 1030 | 0.794
B2 | 2.2 | 243 | 528 | 0.915
B3 | – | 134 | 1680 | 0.919
B4 | 8.7 | 99 | 857 | 0.577
B5 | 9.2 | 220 | 2030 | 0.61
B6 | 4.8 | 154 | 742 | 0.554
B7 | 8.9 | 340 | 3020 | 0.871
